Measurements from US20110262452A1 (Genentech, published 2011).
One block for each binder: values may come before it.

Tests used:
[1] = target: T1, Hepsin (human), recombinant, active (human, UniProt P05981 45-417); test: phage competition ELISA: biotin-hepsin immobilised on NeutrAvidin plates, bound Fab25-phage detected with anti-M13-HRP, KD1 titrated as competitor of Fab25-phage
T1 construct: In the Octet and ELISA assays it was biotinylated with Sulfo-NHS-LC-Biotin; also called human hepsin; active hepsin

[2] = target: T1, Hepsin (human), recombinant, active; test: enzyme inhibition, S2765 substrate, tight binding inhibition fit (Ki app); Fab25, human hepsin
Description: (§1) Enzymatic assays with synthetic substrates: Fab25, IgG25, control Fab, or control IgG were incubated with hepsin (1 nM for human and 2 nM for mouse hepsin) in Hepes buffer (20 mM Hepes, pH 7.5, 150 mM NaCl, 5 mM CaCl₂, 0.01% Triton X-100) for 40 min at room temperature. For experiments with 3,4-dichloro-isocoumarin (DCI), hepsin (1 nM) was incubated with DCI in Hepes buffer containing 0.5% DMSO for 40 min. S2765 was added (final concentration of 0.2 mM) and the linear rates of the increase in absorbance at 405 nm measured on a kinetic microplate reader (Versamax, Molecular Devices, Sunnyvale, Calif.). Data were expressed as fractional enzyme activity (vᵢ/vₒ) and fitted to a four parameter regression curve fitting program (Kaleidagraph Version 3.6, Synergy Software) to determine the IC₅₀ values. Values are the average±SD of three independent experiments. Kᵢ^app values for Fab25 and IgG25 were calculated by fitting the data to the equation for tight binding inhibition systems (Morrison, 1969; Olivero et al., 2005).

[3] = target: T1, Hepsin (human), recombinant, active; test: isothermal titration calorimetry, Fab25 titrated into active hepsin
Description: FIG. 18: Isothermal titration calorimetric experiment of Fab25 binding to active hepsin. The association reaction is exothermic and the stoichiometry of binding is 1:1 as expected.
Isothermal Titration calorimetry: TC experiments were performed on a ITC₂₀₀ instrument (GE healthcare). Fab25 and hepsin were purified separately on a size exclusion chromatographic column (Superdex S200, GE healthcare), using a buffer containing 50 mM HEPES pH 7.5 and 150 mM NaCl. The sample cell (204 μl) was loaded with hepsin (14 μM) and the Fab25 concentration in the syringe was 138 μM. A titration experiment typically consisted of 20 injections, each of 2 μL volume and 180 sec duration, with a 3 min interval between additions. The stirring rate was 1000 rpm. Raw data were integrated, corrected for nonspecific heats, normalized for concentration, and analyzed according to a 1:1 binding model assuming a single set of identical binding sites. (The isothermal titration curve was registered and analyzed using ORIGIN software provided with the ITC instrument. The data were integrated to provide a titration curve; and, by using a nonlinear least-squares fit, the binding constant KA, the heat of binding (ΔH), and the stoichiometry of binding were extracted from the curve.

[4] = target: mouse hepsin extracellular domain (Ser45-Pro416) with C-terminal His-tag (mouse) (UniProt O35453); test: enzyme inhibition, S2765 substrate, tight binding inhibition fit (Ki app); Fab25, murine hepsin
[5] = target: mouse hepsin extracellular domain (Ser45-Pro416) with C-terminal His-tag (mouse) (UniProt O35453)
[6] = target: T1, Hepsin (human), recombinant, active; test: cell-based or functional assay
[7] = target: T1, Hepsin (human), recombinant, active; test: enzyme inhibition, S2765 substrate (ratio of Ki app)
Description: as §1

[8] = target: T1, Hepsin (human), recombinant, active; test: BLI (Octet RED), biotinylated hepsin on streptavidin sensor, Fab25 in solution, 1:1 fit
Description: Fab25 binding to hepsin: An Octet-RED system equipped with streptavidin SBC biosensor tips was purchased from ForteBio (Menlo Park, Calif.). Prior to the start of the experiment, the sensor tips were pre-wet for 15 minutes at 25° C. in a buffer containing 50 mM Hepes pH 7.5, 150 mM NaCl and 0.05% tween-20. Biotinylated hepsin (7.5 μg/ml) was captured on to the streptavidin sensor for 5 minutes with agitation at 1000 rpm. The sensors were briefly washed in buffer before dipping them on to the sample wells containing Fab25 (2-fold serial dilution starting from 200 nM) and buffer control. Association was monitored for 10 minutes and dissociation was followed for 30 minutes. The data was fit to 1:1 binding model using Octet-RED analysis software.

[9] = target: T1, Hepsin (human), recombinant, active; test: cell-based or functional assay; remark: listed apart in the source
[10] = target: T1, Hepsin (human), recombinant, active; test: SPR (BIAcore 3000), Ab25 captured by anti-human IgG on CM5 chip, active human hepsin injected, 1:1 fit
Description: (§2) FIG. 17: A. Surface plasmon resonance was used to measure the binding affinity of Ab25 with active human hepsin. Serial dilutions of hepsin (0.39 nM to 200 nM) were injected to a CM5 biosensor chip with captured Ab25 for 3 minutes and the dissociation was monitored for 15 minutes. […] Serial dilutions of pro-hepsin (195 nM to 80 μM) were injected to a CM5 biosensor chip with captured Ab25 for 2 minutes.
(§3) Binding of Ab25 to hepsin by surface plasmon resonance: Surface plasmon resonance measurements were performed on a BIAcore™-3000 instrument (GE Health Care, NJ) to determine binding affinity of the Ab25. Rabbit anti-human IgG were chemically immobilized (amine coupling) on CM5 biosensor chips and Ab25 was captured to give approximately 350 response units (RU). For kinetics measurements, two-fold serial dilutions of active hepsin (1 nM to 500 nM) were injected in HBS-P buffer at 25° C. with a flow rate of 30 μl/min. Association rates (kₐ) and dissociation rates (kd) were obtained by using a simple one-to-one Langmuir binding model (BIA-Evaluation) and the equilibrium dissociation constants (KD) were calculated (kd/kₐ). Due to rapid kinetics, a steady state measurement was used to determine the affinity of pro-hepsin with Ab25. […] The values of Req were calculated and plotted individually against C (concentration of pro-hepsin) using BIA-Evaluation to determine KD.

pro-hepsin = pro-hepsin (UniProt P05981 45-417, limits assumed); test: SPR (BIAcore 3000), Ab25 captured on CM5 chip, pro-hepsin injected, steady state analysis
Description: as §2, §3

[11] = target: T1, Hepsin (human), recombinant, active; test: enzyme inhibition, S2765 substrate, tight binding inhibition fit (Ki app); IgG25, not Fab; human hepsin
Description: as §1

T1 sequence (P05981 45-417 limits assumed): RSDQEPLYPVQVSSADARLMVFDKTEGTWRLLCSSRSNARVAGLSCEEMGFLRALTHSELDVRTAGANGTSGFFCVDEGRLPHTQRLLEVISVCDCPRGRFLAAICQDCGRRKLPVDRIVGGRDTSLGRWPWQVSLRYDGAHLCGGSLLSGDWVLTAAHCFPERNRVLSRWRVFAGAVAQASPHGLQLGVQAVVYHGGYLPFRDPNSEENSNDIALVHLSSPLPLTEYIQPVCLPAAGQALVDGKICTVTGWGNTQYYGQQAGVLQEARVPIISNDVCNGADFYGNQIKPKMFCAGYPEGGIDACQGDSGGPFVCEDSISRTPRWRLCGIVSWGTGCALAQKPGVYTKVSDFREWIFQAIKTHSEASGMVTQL
Chain of pro-hepsin (P05981 45-417 limits assumed): as above

IC50 (read off the curve) [1]: ~0.2 nM
B1: Kunitz domain inhibitor-1 (KD1) derived from HGFA-inhibitor-1 (HAI-1) (other, UniProt O43278 246-303, looked up)
chain: TEDYCLASNKVGRCRGSFPRWYYDPTEQICKSFVYGGCLGNKNNYLREEECILACRGV

Ki [2]: 4.1 nM | Kd [3]: 6.1 nM | stoichiometry of binding [3]: 1 Fab25 per hepsin | Ki [4]: 329 nM | IC50 (read off the curve) [5]: 300 nM | IC50 (read off the curve) [6]: ~5 nM | fold more potent inhibition than of murine hepsin [7]: ~80 fold | Kd [8]: 2.55 nM | IC50 of hepsin-mediated pro-uPA activation (two-stage enzymatic assay) [9]: 3.3 nM
B2: anti-hepsin antibody Fab25 (Fab, V domains shown)
VH: EVQLVESGGGLVQPGGSLRLSCAASGFNFSYSYMHWVRQAPGKGLEWVASIYSYYGSTYYADSVKGRFTISADTSKNTAYLQMNSLRAEDTAVYYCARSDSWSYKSGYTQKIYSKGLDYWGQGTLVTVSS
VL: DIQMTQSPSSLSASVGDRVTITCRASQSVSSAVAWYQQKPGKAPKLLIYSASSKGVPSRFSGSRSGTDFTLTISSLQPEDFATYYCQQYYSSYYLLTFGQGTKVEIK
notes: also called HpsFab25; Clone 25 (Fab form)

Kd [10]: 10.6 nM | Kd (pro-hepsin): 5520 nM | Ki [11]: 11.3 nM
B3: anti-hepsin antibody IgG25 (antibody, V domains shown)
VH: B2 VH
VL: B2 VL
notes: also called Ab25; mab 25
